Among the data in a protein production outcome set (Wang et al. 2014) are protein production values, retold here.

This series is described as follows: label from the status in PepcDB records.
Consider “MNNKITKTSIFLTISLLLITPGFSVVAVGLLTLYSSVKLIKNGLNLNKFDIIPLITLSAYFLSNLPITIIDGDTLRYLDAGIRALLCIPMYFFIKNEISKGANLDNTLCTSTILASFGALAFAFYQFFILNMPRVDGFLFSINFGYLAAALAILSFGLSFTQTRFKYYLYLSVVAATVATILTLTRGAILTLLFVFILFFIVNVRKIKFKQTLVFTLISFLLVSVSYQFSPRIQERVDFTIFEISSIASNNIHAAASSGGRLQLWYAAVEAFKHNPIWGTTYSERESLNIELFKEGKVDEWTSTVPRGHAHSQYFEAIASNGTLGILAIFAMLILPFGVFLNDYRKTGSPISQTGYLFAFGFIIFCLTEAPLQANLIGTFYGFMVAIFYAYIAAKRAKN”, for which the protein production result is “failed”. Take “MPVLVASDLDRTLIYSAAALGLTMPDLRAPRLLCVEVYESKPLSYLTETAAQLLTDLGDSALFVPTTTRTRKQYQRINLPGPAPKYAICANGGHLLVDGVSDPGWHARVTARLADECASLAEVRDHLTNTADPLWVRKHRVAEDLFAYLVVERDLLPQDWVKELAVWAENRGWTVSLQGRKIYAVPKPLTKSAAMHEVARRTGAELTLAAGDSLLDADLLLAADRGWRPGHGELADSGWTAPTISALPERGVLAGERILREFLRAVRPAR”: the protein production entry was “failed”. As to “LTTEGGKALVDFAVKRNLQYIHFDAGWYGFEYDKVSDATTVTLDPRRNPDINALNLKEVVAYAKERGIGVILYVNQRALQQQLDEILPLYKSWGIAGIKFGFVQVGSQVWTKWMHEAIKKCADYGLMVDVHDEYRPTGFSRTYPNLM”, the protein production entry was “failed”. With “MKKRIILLLAVIIAAAAAGVAFYVAKDKGHEKAADVSVNTESGDELLVSITDTDLLTKYYENDKVIHEEKLTSYPAFALDQKQQVLYYTGNNEQNEMRLFKLDLKSHKKTMLYKGAESADSLFLSKDRSTIYFRLGKADESNFRIAAFDLKTKKYKNLYPAANDQDDTVSSFFYNQKNDSFALLHYSVEEDYKKTDEANEKGIDPEPTTIHFAEGRQNKFNELKSLNQFISDIAVSDDDKRILFTSYTQKGTEQTASIQMLNADTKKYESIISNQKSFKLLIDAQPQFSKDGKNIYFLAEAKGAKKLKDETGREAKVRTIYSYSLENKTFKKVWENPNGIINSFFVIN”, the protein production entry was “failed”. For “MAPKDQAADMDYDQTKKMVVDILKTDDGKKAIKELLNDDAMNEALVIDQDAIKGTIEKTLTSKKGEEFWKNIFEDTDFAEGFAKTLQTEHEKVIKKLMKDPDYQKMLMSVMQDPGMDKKYSQLAKSQEFRSYLEEVINETLSSPLYKKQFEDELKKAAKDTAKESELEHHHHHH” the value was “not failed”; for “MKIDLIISADDIKEEKVKNKTAVVIDMLRATSVITTALNNGCKRVVPVLTVEEALKKVKEYGKDAILGGERKGLKIEGFDFSNSPMEYTEDVVKGKTLIMTTTNGTRAIKGSETARDILIGSVLNGEAVAEKIVELNNDVVIVNAGTYGEFSIDDFICSGYIINCVMDRMKKLELTDAATTAQYVYKTNEDIKGFVKYAKHYKRIMELGLKKDFEYCCKKDIVKLVPQYTNGEIL”, “not failed”.

For the sequence “MKSNLFMKRKLEIGLSLLIGTSVFGGCNNDLAPIRQSQTFPPNLNAPTVFESFSPDSGGVKTQLIIRGQNFGTDTAYLKVTVNNKRAAIVGVADDVIYAIVPARADTGYVRLFVGKDDNVEEYASQTKFIYQFKRNVTTLMGRQGQSGRDDGPYAECKLQRPWFALADKDGALFFIDEGRGQNKNGALRRAQEGWVETLVQNSSGPFQSPTCLAFNPKQDTLYISNMSYGSDIKTSFNILYVTREGGFMDVKGLCKFEKAETQGLAVHPQTGEIFFCNKSGGYIYRFNGPDYEDYEPLFQINRADKIDTRMVFNPEGTALFVVVCNRHCIYKVPYNALTHTFGEPELFAGGWDESGYVNGSGVTARFDNPRQPAFDQDGNMFVPEYGRHTIRKITPTGEVSLYAGLPGQAGFTDGLPEKARFNKPECVTVYLDNSLYVADRDNHLIRRVTVE”, the protein production result is listed as “failed”.

On to “MERHQHLLSEYQQILTLSEQMLVLATEGNWDALVDLEMTYLKAVESTANITISSCSSLMLQDLLREKLRAILDNEIEIKRLLQLRLDRLSDLVGQSTKQQAVNNTYGQFPDHALL”, for which the protein production entry is given as “not failed”.

Turning to “MTLETISSLLPMSAAGLAAVVSALAALGLGLGLWCARHRLRLLTAALEASGCGLITIEGGTRVFQANRQAARLLGRPEGLARDTQARKLFGGTLTAAVQGPGDGQPVRGTAHRPDHGWFPATLQSLGPCGGFARQRRLWLLRDLSDAQELERLRETEERFNASQRFGRIGVWDWNTETNEVFWSEEVFPMFGFTPAEITPTYDLFIAMVHPDDFVALTDSERACLSGTTLHDQEYRVIWRDGSVHWIRETADVLRESDGTPRRMVGVIREVTEEKEAQRQALRIAMLDPLTGLPNRATFLERLEADLGQVDETGVAVPLALAFIDLDDFKPINDTYGHLMGDRVLMTIAKRLSEAVRPQDMVARVGGDEFVALLRGCRDGARARTVAARLLDAVTAPVSIDTVIHRVRASIGISLYPSLVSTGDDLIATADQAMYVAKRAGGDPIRLHGE”, the protein production entry is on record as “failed”. On to “MISVVIPLFNKAPHIVRAVESVLEQSSPADEIIVVDDGSTDGGGELLLPYVAKHGVRLIRQENAGVSVARNHGVNLAASDYVAFLDADDFWLPNHIATLRRLIDNYPEASLFSTALIIERDGRQWRSKSTYSDGWEGVVQDFFTEYLRRFALVSSTTSCVRKKDFCSIGGFPVGVKYGEDFICWMKMALFYRVAHAEVVTAVYCLDAVNRTDQLQETDVLAPLQFIAKLLQSNELDNAQRVGLAQLFDHISFSTGARFRINSNLNGVNAIRNLSWEMGHYRVSLLMSALRFTPSLLLQAAKRFRYRQVSVV”, for which the protein production result was “failed”. Regarding “MSLKIAVTGGTGFLGQYVVESIKNDGNTPIILTRSIGNKAINDYEYRVSDYTLEDLINQLNDVDAVVHLAATRGSQGKISEFHDNEILTQNLYDACYENNISNIVYASTISAYSDETSLPWNEKELPLPDLMYGVSKLACEHIGNIYSRKKGLCIKNLRFAHLYGFNEKNNYMINRFFRQAFHGEQLTLHANSVAKREFLYAKDAAKSVIYALKQEKVSGTFNIGSGDALTNYEVANTINNAFGNKDNLLVKNPNANEGIHSSYMDSSKAKELLDFSTDYNFATAVEEIHLLMRGLDDVPLWYEGHHHHHH”, the protein production result was “not failed”. The entry for “MGEGGEMGVGIFQIDMDWLHRWLRHRRGPGSGKTSGNRNLKPRLTPAAAQQDHRQMLCFMTLNAAVGVLIGICVGAALIFLDIGGLGARIGRAASPFVPVLLVVVPIASLFGAAAAASAILLMPYEKKFRDDDDDARGE” is “failed”.

Regarding “MELNNTIATPLYKQLEKKLQQEIDSGKRPAGSRLPTENELSKAYNVSRVTVRKALAELSESGYLERKSGKGTFVAEKKLERGITNGVLGFSEMCKMMNAIPGAKIIKIALEEPSEKDIQKMSLNKDEKVLVLERVRYANGKPVLLELNKFPESFSFLFEENLTDASLYDILEQHNIILDHSRKTLDIVFADTKEAKTLGISRGYPLLRINSIIHNADNTITNLCQQLCIGDKFTFII”, the protein production result is “failed”. Turning to “MPITVHAYTSLDNEEIRTQLERLYDTSPEFGDGQDAIEQLEQNLAQYTTVYTAEFNTKIIGAIWCTGQGESKILEYIVVHPANRGRGIAERLVSEVCRMEEAKGVTMFEPGCGAIHRCLAHIGKLSV”, the protein production entry is recorded as “failed”.

For “MKLERQKLLAKVAYLYYMEGKSQSEIANELGIYRTTISRMLAKAREEGLVRIEISDFNPEIFQLESYFKSKYHLKDIEIVSSRKDSDTSEIEKDLAHVAAAMIRKKIKENDKVGIAWGRTLSKVVEAMRPHPVSQVSFVPLAGGPSHINARYHVNTLVYEMSRRFQGSCTFINATLVQENANLAKGILTSKYFEGLMDNWEKLDVAIVGVGGKPKSNEQQWLDLLNQDDFQCLDEEAAVGEITCRFFNHSGDPVNQHLAKRTIGITLEQLQKVPNRIAVAHGNYKAAALLAVLKKGYINHLVTDFSTALNILRLDKDTFVDTIYQKS”, the protein production result is reported as “not failed”. For “MNYFATVARGLETLAAQELEQLGAHSVEPGFCGVAFEGDRTLLYRVNLWARLPFRILVDIHEFPCLDAKDLYRGIQTIDWQNYLTPDMTLAVNVTGKNAHLNHSHFTSLQVKNAIVDQQQEKLGERSNVELHEPDVRVNVHIERDFCTVKLDSSGNSLHRRGYRPAVGSAPLKESLAAALIQLSGWKQDQMFYDPLCGSGTLPLEASLKALNIAPGLFRESFGFENWLDFDLVLLEKLLQEAKDSQLDTLPAPIWGSDHDENVIEQAINNAQNCGVDNHVWFSQMELADVVAPADSGILLCNPPYGERLGRDSDLGAFYKLLGDVLKQRFKGWTAFVLSGNKELSQSIGLKSSKRIAVYNGALPCQLMKYELY” the value was “failed”; for “MGHHHHHHSHSVGMDTFIHRIDSTEVIYQPRRKRAKLIGKYLMGDLLGEGSYGKVKEVLDSETLCRRAVKILKKKKLRRIPNGEANVKKEIQLLRRLRHKNVIQLVDVLYNEEKQKMYMVMEYCVCGMQEMLDSVPEKRFPVCQAHGYFCQLIDGLEYLHSQGIVHKDIKPG”, “failed”. For “MSLELPAEVQEMPIYREWISGILAGKIASPFWEMAQPQKNQHCLDIGCGVSFLIYPWRDWQAFFYGQDVSNVARDTLNSRGSQLNSKLFKGVELGAAHQLKYTLSYFDLAIATGFSCYFPLEYWTSVLQAVKRVLKPDGHFVFDILNAAHPQAEDWAVLETYLGAEVFLEPVTEWEKIINAAGAKVVGRQPGEFFDLYKLRLEHHHHHH” the value was “not failed”. For “MITIRNKIGQMLIMGFHGSELHDNSPVAQWLSNDGLGGVLLFDKDLSTGIYGKNLRNQAQIKQLIRQLNRYASMISGGNDNLPLFTAIDYEGGVVDRLSKIEGCPPTMKARELAKLSSDDFDEEVTQMAMTLQSLGFNLNFAPVVDLNLNAHAGIIGNLGRSFSSNPEVTIRLAKQFVDVFSRYGIACAYKHFPGHGSATGDTHEGFVDVTETFQTDELIPYRSLLKDLSNPFMVMTAHVINKHLDSKGLPATLSYDVLTLLLRQSIGYDGVIISDDLQMHAISNHYSLEDALCLTINAGADMVIFANQLGTITPPEVIDVIEKLVIDKQIPYQRIDEAYRRIVRLKQQIICSELINT”, the protein production entry is on record as “failed”. Take “MLNSHPKKTQSLYRAGLVVLQITESLLILALLYQAINKLIFINNYSIKFMLTFILYSPEFFMANLTTYYFIYEKFKILHSIIVITKLFQIILTLLLFILGFIFKIYVYQTSLAIILGITVVYLVFNVTILVLIKAKIKNLE”: the protein production entry is “failed”. Consider “MNNQFSQRVSDIIVYSKEEANRLRSRHIGPEHLLLGMLRDGEGKAIEILSKLNTNLAAVKQQIEARLKTEADDMLLPDAEIPLSNDAAKILKMCILEARGMKSNIADTEHVLLAILRERNNMAASVLEANDVNYVKVLEQATLQPD”, for which the protein production result is recorded as “failed”. Consider “MKNTELEQLINEKLNSAAISDYAPNGLQVEGKETVQKIVTGVTASQALLDEAVRLGADAVIVHHGYFWKGESPVIRGMKRNRLKTLLANDINLYGWHLPLDAHPELGNNAQLAALLGITVMGEIEPLVPWGELTMPVPGLELASWIEARLGRKPLWCGDTGPEVVQRVAWCTGGGQSFIDSAARFGVDAFITGEVSEQTIHSAREQGLHFYAAGHHATERGGIRALSEWLNENTDLDVTFIDIPNPA”, for which the protein production entry is reported as “not failed”.

As to “MTSFVGTRGRGNCGTAPGRSPSLQAHGKMGRRREPGVPEESCCSHDACCEKAAKPRVEEVATSGCADCCSAGVPVFDGLDPRYKRILWTVIAINAAMFVSEMVAGHLAGSQALKADALDFLADTVTYGLSLSVIGASLKTRATAALFKGVSLSAMAAWVFGSTVYQTLILGLPRAELMGAMSLAALAANLTSVLLLARYKDGDANVRSVWLCSRNDAVGNVIVMIAAVGVFGTGTAWPDLAVAAVMAGIFLTSSLQILRQAWAEYRGGQAAATA”, the protein production result was “failed”.
